# Results reported in patent publication US20040091500A1.
# Where a chain is given by its changes, count along the chain named.
# B1: Bet v 1 mutant Asn28Thr+Lys32Gln (protein)
# chain: GVFNYETETTSVIPAARLFKAFILDGDTLFPQVAPQAISSVENIEGNGGPGTIKKISFPEGLPFKYVKDRVDEVDHTNFKYNYSVIEGGPIGDTLEKISNEIKIVATPDGGSILKISNKYHTKGDHEVKAEQVKASKEMGETLLRAVESYLLAHSDAYN
# B2: Bet v 1 Triple-patch mutant (Asn28Thr, Lys32Gln, Glu45Ser, Pro108Gly) (protein)
# chain: B1 chain with E45S, P108G
# B3: Recombinant Bet v 1 No. 2801 (protein)
# chain: B1 chain with T28N, Q32K
# B4: Bet v 1 Pro108Gly mutant (protein)
# chain: B1 chain with T28N, Q32K, P108G
# B5: Bet v 1 Glu45Ser mutant (protein)
# chain: B1 chain with T28N, Q32K, E45S
# Tests used:
# [1] = target: Serum IgE from a pool of birch allergic patients (human); test: fluid-phase IgE-inhibition assay
# [2] = target: Serum IgE from a pool of birch allergic patients (human); test: fluid-phase IgE-inhibition assay; competitor biotinylated Bet v 1 no. 2801
Binder,factor by which affinity is lowered vs recombinant Bet v 1 [1] [fold],factor of decrease in affinity vs recombinant Bet v 1 (at 50% inhibition) [1] [fold],factor of decrease vs recombinant Bet v 1 (at 80% inhibition) [1] [fold],amount to reach 80% inhibition [2] [ng]
B1,2,,,
B2,,5,20,400
B3,,,,20
B4,2,,,
B5,2,,,
